According to patent US20260242478A1 (published 2026):

These binders were tested against T1, Anti-CD28 Fab (SEQ ID NOs: 696, 697) (assay: phage binding ELISA; clonal phage on plate-captured biotinylated anti-CD28 Fab, anti-M13 HRP detection).
T1 construct: In the phage ELISA the Fab was biotinylated and captured on neutravidin coated plates
T1 sequence (VH, as listed by the source, chain 1 of 2): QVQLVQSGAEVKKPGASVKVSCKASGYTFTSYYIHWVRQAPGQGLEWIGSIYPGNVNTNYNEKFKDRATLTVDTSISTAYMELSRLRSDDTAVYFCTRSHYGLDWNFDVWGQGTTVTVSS
T1 sequence (VL, as listed by the source, chain 2 of 2): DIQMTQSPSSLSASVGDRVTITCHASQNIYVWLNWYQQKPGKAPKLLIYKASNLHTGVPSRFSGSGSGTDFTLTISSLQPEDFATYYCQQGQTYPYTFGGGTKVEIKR
Description: (§1) Clonal phage were harvested as crude supematants and screened via standard ELISAs. […] Prior to the addition of clonal phage, wells were incubated with blocking buffer and CD28 antigen or blocking buffer alone. Without washing or aspirating, clonal phage supematants were then added to the wells and incubated for a short time. Wells were then washed followed by detection of bound phage using a horse radish conjugated anti-M13 antibody.

| Binder | Anti-CD28 Fab (SEQ ID NOs: 696, 697) signal |
| --- | --- |
| SCAAGAPYPWPECL [Phage-1518 (Peptide-92 library sequence, SEQ ID NO: 1814)] | 1.59 |
| TCAAGAMWTWPECL [Phage-1528 (Peptide-92 library sequence, SEQ ID NO: 1824)] | 1.57 |
| SCAAGAQYGWPMCL [Phage-1523 (Peptide-92 library sequence, SEQ ID NO: 1819)] | 1.59 |
| LCAAGFNYPWPLCL [Phage-1530 (Peptide-92 library sequence, SEQ ID NO: 1826)] | 1.57 |
| TCTAVFPYEWPRCL [Phage-1525 (Peptide-92 library sequence, SEQ ID NO: 1821)] | 1.57 |
| SCAAGAMWPWPVCV [Phage-1522 (Peptide-92 library sequence, SEQ ID NO: 1818)] | 1.59 |
| SCAAGATYEWPICL [Phage-1521 (Peptide-92 library sequence, SEQ ID NO: 1817)] | 1.59 |
| LCAAGAAYPWPMCL [Phage-1520 (Peptide-92 library sequence, SEQ ID NO: 1816)] | 1.59 |
| SCAAGATFHWPMCF [Phage-1526 (Peptide-92 library sequence, SEQ ID NO: 1822)] | 1.57 |
| TCSAGAAYAWPYCL [Phage-1519 (Peptide-92 library sequence, SEQ ID NO: 1815)] | 1.59 |
| MCTAGATYPWPACL [Phage-1531 (Peptide-92 library sequence, SEQ ID NO: 1827)] | 1.56 |
| WCAAGASYPWPWCL [Phage-1524 (Peptide-92 library sequence, SEQ ID NO: 1820)] | 1.58 |
| TCSAGFSYKWPWCL [Phage-1527 (Peptide-92 library sequence, SEQ ID NO: 1823)] | 1.57 |
| TCAAGATYPWPECM [Phage-1529 (Peptide-92 library sequence, SEQ ID NO: 1825)] | 1.57 |

These binders were tested against T2, Anti-CD28 Fab (SEQ ID NOs: 696, 697) (assay: phage binding ELISA on captured anti-CD28 Fab; competitor: CD28 antigen pre-incubated in the well;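 also: clonal phage supernatants added briefly to wells preblocked with or without CD28, bound phage detected through an HRP-linked anti-M13 antibody, wells with blocking buffer alone as comparison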).
T2 construct: Biotinylated and captured on neutravidin coated plates in the phage ELISA
T2 sequence (VH, as listed by the source, chain 1 of 2): as the sequence (VH, as listed by the source, chain 1 of 2) above
T2 sequence (VL, as listed by the source, chain 2 of 2): as the sequence (VL, as listed by the source, chain 2 of 2) above
Description: (§2) Clonal phage were harvested as crude supematants and screened via standard ELISAs. […] Prior to the addition of clonal phage, wells were incubated with blocking buffer and CD28 antigen or blocking buffer alone. Without washing or aspirating, clonal phage supematants were then added to the wells and incubated for a short time. Wells were then washed followed by detection of bound phage using a horse radish conjugated anti-M13 antibody. Clonal phage of interest were then sent for sequence analysis.

| Binder | Anti-CD28 Fab signal in the presence of CD28 (phage binding ELISA) |
| --- | --- |
| TCAAGAHYTWPTCL (tested as crude phage supernatant) [Phage-1558] | 0.07 |
| ICAAGFIWSWPACF (tested as crude phage supernatant) [Phage-1548] | 0.08 |
| TCSAGATYKWPVCL (tested as crude phage supernatant) [Phage-1559] | 0.06 |
| SCAAGAHYKWPVCI (tested as crude phage supernatant) [Phage-1547] | 0.06 |
| TCAAGATYTWPTCF (tested as crude phage supernatant) [Phage-1555] | 0.05 |
| TCAAGAHYLWPHCL (tested as crude phage supernatant) [Phage-1551] | 0.12 |
| TCAAGAMYQWPECF (tested as crude phage supernatant) [Phage-1557] | 0.06 |
| NCSAGATWPWPMCF (tested as crude phage supernatant) [Phage-1553] | 0.1 |
| PCAAGAMWAWPYCL (tested as crude phage supernatant) [Phage-1552] | 0.05 |
| TCAAGVHFGWPLCF (tested as crude phage supernatant) [Phage-1554] | 0.07 |
| SCSAGATYEWPYCF (tested as crude phage supernatant) [Phage-1560] | 0.06 |
| TCAAGASWEWPACL (tested as crude phage supernatant) [Phage-1556] | 0.08 |
| QCAAGAMWTWPVCF (tested as crude phage supernatant) [Phage-1550] | 0.07 |
| TCAAGATYSWPDCF (tested as crude phage supernatant) [Phage-1549] | 0.06 |

These binders were tested against Anti-CD28 Fab (SEQ ID NOs: 696, 697) (assay: phage binding ELISA; Fab-coated wells pre-incubated with CD28 antigen as competitor;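 also: clonal phage supernatants added to wells preincubated with CD28 antigen or blocking buffer only, bound phage detected with HRP-conjugated anti-M13 antibody, buffer-only wells as control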).
Target sequence in this assay (VH, as listed by the source, chain 1 of 2): as the sequence (VH, as listed by the source, chain 1 of 2) above
Target sequence in this assay (VL, as listed by the source, chain 2 of 2): as the sequence (VL, as listed by the source, chain 2 of 2) above
Description: as §1

| Binder | Anti-CD28 Fab signal in the presence of CD28 |
| --- | --- |
| TCSAGAAWTWPLCF [Phage-1601] | 0.06 |
| SCSAFFHFHWPACL [Phage-1594] | 0.06 |
| TCSAGAAYEWPECF [Phage-1602] | 0.06 |
| LCSAGAMWEWPLCL [Phage-1599] | 0.07 |
| TCSAGAEYTWPLCF [Phage-1591] | 0.08 |
| TCSAGAHWVWPYCL [Phage-1596] | 0.09 |
| TCSAGALWEWPMCF [Phage-1603] | 0.06 |
| TCAAGATWLWPVCL [Phage-1593] | 0.08 |
| SCAAGATYGWPECF [Phage-1597] | 0.07 |
| TCSAGANWVWPLCL [Phage-1595] | 0.07 |
| TCSAGAGYPWPTCL [Phage-1600] | 0.06 |
| SCAAGATWAWPACL [Phage-1598] | 0.06 |
| PCAAGAHYTWPTCL [Phage-1604] | 0.07 |
| SCAAGAAWGWPACF [Phage-1592] | 0.09 |

These binders were tested against T3, Anti-CD28 Fab (SEQ ID NOs: 696, 697) (assay: phage binding ELISA on captured anti-CD28 Fab; competitor CD28 antigen pre-incubated in the wells).
T3 construct: Biotinylated and captured on neutravidin coated plates in the phage ELISA
T3 sequence (VH, as listed by the source, chain 1 of 2): as the sequence (VH, as listed by the source, chain 1 of 2) above
T3 sequence (VL, as listed by the source, chain 2 of 2): as the sequence (VL, as listed by the source, chain 2 of 2) above
Description: as §1

| Binder | Anti-CD28 Fab signal in the presence of CD28 |
| --- | --- |
| GCAAGANYPWPLCL (peptide, not shown: large carriers) [Phage-1516] | 0.05 |
| SCAAGATYEWPRCL (peptide, not shown: large carriers) [Phage-1515] | 0.07 |
| TCAAGAYYAWPMCL (peptide, not shown: large carriers) [Phage-1517] | 0.07 |
| TCAAGAGWQWPMCF (peptide, not shown: large carriers) [Phage-1514] | 0.11 |

Each binder was assayed against T1, Anti-CD28 Fab (SEQ ID NOs: 696, 697) (assay: phage binding ELISA on plate-captured anti-CD28 Fab pre-incubated with CD28 antigen (competitor: CD28)).
Description: as §1

| Binder | Anti-CD28 Fab signal in the presence of CD28 |
| --- | --- |
| SCAAGAPYPWPECL [Phage-1518 (Peptide-92 library sequence, SEQ ID NO: 1814)] | 0.07 |
| TCAAGAMWTWPECL [Phage-1528 (Peptide-92 library sequence, SEQ ID NO: 1824)] | 0.07 |
| SCAAGAQYGWPMCL [Phage-1523 (Peptide-92 library sequence, SEQ ID NO: 1819)] | 0.05 |
| LCAAGFNYPWPLCL [Phage-1530 (Peptide-92 library sequence, SEQ ID NO: 1826)] | 0.05 |
| TCTAVFPYEWPRCL [Phage-1525 (Peptide-92 library sequence, SEQ ID NO: 1821)] | 0.07 |
| SCAAGAMWPWPVCV [Phage-1522 (Peptide-92 library sequence, SEQ ID NO: 1818)] | 0.07 |
| SCAAGATYEWPICL [Phage-1521 (Peptide-92 library sequence, SEQ ID NO: 1817)] | 0.05 |
| LCAAGAAYPWPMCL [Phage-1520 (Peptide-92 library sequence, SEQ ID NO: 1816)] | 0.06 |
| SCAAGATFHWPMCF [Phage-1526 (Peptide-92 library sequence, SEQ ID NO: 1822)] | 0.09 |
| TCSAGAAYAWPYCL [Phage-1519 (Peptide-92 library sequence, SEQ ID NO: 1815)] | 0.07 |
| MCTAGATYPWPACL [Phage-1531 (Peptide-92 library sequence, SEQ ID NO: 1827)] | 0.07 |
| WCAAGASYPWPWCL [Phage-1524 (Peptide-92 library sequence, SEQ ID NO: 1820)] | 0.05 |
| TCSAGFSYKWPWCL [Phage-1527 (Peptide-92 library sequence, SEQ ID NO: 1823)] | 0.06 |
| TCAAGATYPWPECM [Phage-1529 (Peptide-92 library sequence, SEQ ID NO: 1825)] | 0.06 |

Each binder was assayed against Anti-CD28 Fab (SEQ ID NOs: 696, 697) (assay: phage binding ELISA; biotinylated Fab on neutravidin plate, bound phage detected with anti-M13-HRP).
Target sequence in this assay (VH, as listed by the source, chain 1 of 2): as the sequence (VH, as listed by the source, chain 1 of 2) above
Target sequence in this assay (VL, as listed by the source, chain 2 of 2): as the sequence (VL, as listed by the source, chain 2 of 2) above
Description: as §1

| Binder | Anti-CD28 Fab signal |
| --- | --- |
| TCSAGAAWTWPLCF [Phage-1601] | 1.36 |
| SCSAFFHFHWPACL [Phage-1594] | 1.38 |
| TCSAGAAYEWPECF [Phage-1602] | 1.36 |
| LCSAGAMWEWPLCL [Phage-1599] | 1.36 |
| TCSAGAEYTWPLCF [Phage-1591] | 1.4 |
| TCSAGAHWVWPYCL [Phage-1596] | 1.37 |
| TCSAGALWEWPMCF [Phage-1603] | 1.35 |
| TCAAGATWLWPVCL [Phage-1593] | 1.39 |
| SCAAGATYGWPECF [Phage-1597] | 1.36 |
| TCSAGANWVWPLCL [Phage-1595] | 1.38 |
| TCSAGAGYPWPTCL [Phage-1600] | 1.36 |
| SCAAGATWAWPACL [Phage-1598] | 1.36 |
| PCAAGAHYTWPTCL [Phage-1604] | 1.34 |
| SCAAGAAWGWPACF [Phage-1592] | 1.39 |

Each binder was assayed against T3, Anti-CD28 Fab (SEQ ID NOs: 696, 697) (assay: phage binding ELISA; clonal phage on biotinylated anti-CD28 Fab captured on neutravidin, anti-M13-HRP detection).
Description: as §1

| Binder | Anti-CD28 Fab (SEQ ID NOs: 696, 697) signal |
| --- | --- |
| GCAAGANYPWPLCL (peptide, not shown: large carriers) [Phage-1516] | 1.59 |
| SCAAGATYEWPRCL (peptide, not shown: large carriers) [Phage-1515] | 1.6 |
| TCAAGAYYAWPMCL (peptide, not shown: large carriers) [Phage-1517] | 1.59 |
| TCAAGAGWQWPMCF (peptide, not shown: large carriers) [Phage-1514] | 1.6 |

What follows are binders tested against T2, Anti-CD28 Fab (SEQ ID NOs: 696, 697) (assay: phage binding ELISA; biotinylated anti-CD28 Fab on neutravidin plate, clonal phage detected with anti-M13-HRP;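 also: crude clonal phage supernatants added briefly to wells preincubated in blocking buffer with or without CD28 antigen, then washed before detection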).
Description: as §2

| Binder | Anti-CD28 Fab signal (phage binding ELISA) |
| --- | --- |
| TCAAGAHYTWPTCL (tested as crude phage supernatant) [Phage-1558] | 1.47 |
| ICAAGFIWSWPACF (tested as crude phage supernatant) [Phage-1548] | 1.51 |
| TCSAGATYKWPVCL (tested as crude phage supernatant) [Phage-1559] | 1.47 |
| SCAAGAHYKWPVCI (tested as crude phage supernatant) [Phage-1547] | 1.51 |
| TCAAGATYTWPTCF (tested as crude phage supernatant) [Phage-1555] | 1.48 |
| TCAAGAHYLWPHCL (tested as crude phage supernatant) [Phage-1551] | 1.5 |
| TCAAGAMYQWPECF (tested as crude phage supernatant) [Phage-1557] | 1.48 |
| NCSAGATWPWPMCF (tested as crude phage supernatant) [Phage-1553] | 1.49 |
| PCAAGAMWAWPYCL (tested as crude phage supernatant) [Phage-1552] | 1.49 |
| TCAAGVHFGWPLCF (tested as crude phage supernatant) [Phage-1554] | 1.49 |
| SCSAGATYEWPYCF (tested as crude phage supernatant) [Phage-1560] | 1.47 |
| TCAAGASWEWPACL (tested as crude phage supernatant) [Phage-1556] | 1.48 |
| QCAAGAMWTWPVCF (tested as crude phage supernatant) [Phage-1550] | 1.5 |
| TCAAGATYSWPDCF (tested as crude phage supernatant) [Phage-1549] | 1.51 |
